We go through one substance from article PMC446230.

Assay [1] concerns the target DC-SIGN (DC-specific intercellular adhesion molecule-3 (ICAM-3)-grabbing nonintegrin) on K562/DC-SIGN cells (human) (UniProt Q9NNX6). The assay is described as follows: virus adhesion to cells, captured virus measured by p24 ELISA. For orientation: An ELISA detects its analyte on a solid surface through an enzyme-linked reagent.
Assay [2] concerns the target DC-SIGN (DC-specific intercellular adhesion molecule-3 (ICAM-3)-grabbing nonintegrin) on Raji/DC-SIGN cells (human) (UniProt Q9NNX6). Described as above.

On to “R5-tropic HIV-1ADA envelope glycoprotein on pseudotyped HIV-Luc/ADA particles (natural protein)”, for which the fold HIV-1 binding relative to the parental cells turned out to be 1.8 fold in assay [1] and 1.5 fold in assay [2].
